Earlier results on one substance are cited in paper PMC5818423.

A word on the Kd: it is the free concentration of one partner at which half of the binding sites on the other are occupied at equilibrium, for simple one-to-one binding.

The target of data set [1] is Adenosine A1 receptor (UniProt P30542).
The target in data set [2] is CD26 (UniProt P27487).
Sequence of CD26 (P27487 39-766): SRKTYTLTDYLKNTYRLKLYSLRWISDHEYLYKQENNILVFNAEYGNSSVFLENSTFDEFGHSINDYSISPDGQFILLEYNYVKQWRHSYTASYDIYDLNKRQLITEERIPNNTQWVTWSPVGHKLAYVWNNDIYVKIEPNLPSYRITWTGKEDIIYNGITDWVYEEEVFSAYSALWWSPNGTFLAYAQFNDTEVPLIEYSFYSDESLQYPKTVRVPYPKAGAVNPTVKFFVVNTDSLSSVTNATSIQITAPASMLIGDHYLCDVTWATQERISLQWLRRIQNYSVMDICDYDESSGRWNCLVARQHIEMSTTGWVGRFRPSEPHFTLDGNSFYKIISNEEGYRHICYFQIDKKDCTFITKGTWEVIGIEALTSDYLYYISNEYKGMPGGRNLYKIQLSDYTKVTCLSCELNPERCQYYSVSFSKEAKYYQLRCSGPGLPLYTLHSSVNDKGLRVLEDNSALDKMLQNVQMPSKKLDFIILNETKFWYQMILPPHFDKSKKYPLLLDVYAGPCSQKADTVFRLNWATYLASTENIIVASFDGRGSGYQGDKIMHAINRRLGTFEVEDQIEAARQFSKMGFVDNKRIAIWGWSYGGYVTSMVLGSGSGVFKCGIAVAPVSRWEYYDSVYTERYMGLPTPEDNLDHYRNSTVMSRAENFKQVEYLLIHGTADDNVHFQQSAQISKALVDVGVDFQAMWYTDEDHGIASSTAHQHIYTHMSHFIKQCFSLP

Sequence of Adenosine deaminase (P00813 2-363): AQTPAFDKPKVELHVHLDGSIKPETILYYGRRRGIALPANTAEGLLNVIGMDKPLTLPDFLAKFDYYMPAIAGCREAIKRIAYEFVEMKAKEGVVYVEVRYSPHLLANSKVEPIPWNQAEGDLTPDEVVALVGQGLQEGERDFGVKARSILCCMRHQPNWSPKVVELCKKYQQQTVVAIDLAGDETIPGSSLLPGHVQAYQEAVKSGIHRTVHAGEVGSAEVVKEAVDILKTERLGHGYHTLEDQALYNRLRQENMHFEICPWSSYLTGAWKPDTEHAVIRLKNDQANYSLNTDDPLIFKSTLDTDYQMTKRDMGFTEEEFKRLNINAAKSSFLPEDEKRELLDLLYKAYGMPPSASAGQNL
Sequence of Adenosine A1 receptor (P30542 whole entry): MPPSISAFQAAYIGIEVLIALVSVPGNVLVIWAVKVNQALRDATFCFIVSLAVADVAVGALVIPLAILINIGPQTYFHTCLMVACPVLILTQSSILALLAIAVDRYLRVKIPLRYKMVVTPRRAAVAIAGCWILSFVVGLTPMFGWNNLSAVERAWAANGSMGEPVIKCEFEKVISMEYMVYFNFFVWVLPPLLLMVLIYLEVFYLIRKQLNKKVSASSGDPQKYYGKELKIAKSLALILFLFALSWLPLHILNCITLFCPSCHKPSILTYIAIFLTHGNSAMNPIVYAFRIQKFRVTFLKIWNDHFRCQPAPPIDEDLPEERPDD

Consider “Adenosine deaminase (from UniProt P00813)”, for which the results for the Kd in data set [1] and in data set [2] were 230 nM and 18 nM, respectively.
